± gives the standard deviation of the averaged measurements.
Test system: ATP
Assay: switch fluorescence ratio, 500 uM ATP over buffer (Cy3 cluster intensity, sum of 5 cycles each) (fold (ratio)); higher = stronger signal-on switching upon ATP binding; sequences stand for … in TCGTCGGCAGCGTCAGATGTGTATAAGAGACAGTTTTTTTTTTTTTTTTTTTTTTTTT…TC
Conditions: aptamer strand: ATP DNA aptamer (quencher-CACCTGGGGGAGTATTGCGGAGGAAGG + anchor), 100 nM annealed; ATP concentration: 500 uM
How it was run: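 Between each of five buffer/ATP cycles, the flow-cell was stripped with NaOH and re-annealed. Each cycle imaged Cy3-labelled switching-strand clusters, annealed to 100 nM quencher-labelled ATP aptamer on a modified Illumina MiSeq flow-cell, first in selection buffer and then after 15 min with 500 uM ATP at 22 °C. The fluorescence ratio is summed target-cycle over summed buffer-cycle Cy3 intensity per cluster, averaged per switch-domain sequence, with clusters outside 100-1000 RFU excluded.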
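Further: ATP exposure 15 min at 22 °C before imaging.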

Sequence	switch fluorescence ratio
TCGTATCGGG	1 ± 0.034
TCGTATCGTA	0.975 ± 0.013
TCGTATGCGT	1.11 ± 0.25
TCGTATGTTT	0.985 ± 0.021
TCGTCAAAGA	1.07 ± 0.023
TCGTCATTGC	1.22 ± 0.037
TCGTCGGGGC	1.03 ± 0.029
TCGTCGTACG	1.02 ± 0.021
TCGTCGTAGG	1.01 ± 0.03
TCGTGAACGT	0.978 ± 0.011
TCGTGCAACA	0.983 ± 0.025
TCGTGCTGCG	1.0004 ± 0.00051
TCGTGGAGGT	0.985 ± 0.036
TCGTGGGGGA	1.02 ± 0.028
TCGTGGGGGT	0.979 ± 0.045
TCGTGGGGTT	1.02 ± 0.012
TCGTGGTCTG	0.999 ± 0.036
TCGTGTAAAC	0.981 ± 0.028
TCGTGTATTG	0.984 ± 0.026
TCGTGTTCTG	1.01 ± 0.029
TCGTGTTTCA	1 ± 0.014
TCGTTACAGA	1.02 ± 0.045
TCGTTATGGA	0.987 ± 0.035
TCGTTATTTT	1.04 ± 0.052
TCGTTCACTG	0.9891 ± 0.007

Sequence	switch fluorescence ratio
TCGTTCAGGA	0.995 ± 0.013
TCGTTCCGGT	1.02 ± 0.026
TCGTTGAGGG	0.96 ± 0.036
TCGTTGATGT	1 ± 0.049
TCGTTGTTAG	0.992 ± 0.02
TCGTTTAGCA	1.07 ± 0.029
TCGTTTCCGT	0.984 ± 0.035
TCGTTTGAGT	0.997 ± 0.021
TCTAACGCTG	1.13 ± 0.056
TCTAACTTTT	1.01 ± 0.033
TCTAAGGGAG	0.987 ± 0.012
TCTAATAGCC	1.03 ± 0.08
TCTAATGGGC	0.993 ± 0.05
TCTAATGGGT	0.982 ± 0.017
TCTAATTCCT	1.06 ± 0.024
TCTAGAGCGG	1.02 ± 0.029
TCTAGGGACA	1.25 ± 0.063
TCTAGGGGGG	1.02 ± 0.058
TCTATAAGGA	1.01 ± 0.048
TCTATAAGTT	1.02 ± 0.044
TCTATGCGGG	1.017 ± 0.0013
TCTATTATCA	1.04 ± 0.024
TCTATTATTT	1.03 ± 0.061
TCTATTGGTG	1.02 ± 0.069
TCTATTGGTT	0.966 ± 0.021

Sequence	switch fluorescence ratio
TCTATTTCGT	1.01 ± 0.032
TCTCATTCTT	1.03 ± 0.028
TCTCATTGGG	0.9875 ± 0.004
TCTCCAGATA	1.12 ± 0.034
TCTCCAGGAA	1.62 ± 0.3
TCTCCGTGGG	1.52 ± 0.37
TCTCGATTTT	1.038 ± 0.0042
TCTCGCTTGG	1.02 ± 0.037
TCTCGGCGGA	1.02 ± 0.028
TCTCGGGCTT	0.9873 ± 0.0047
TCTCGGGGTG	1.04 ± 0.089
TCTCGTATAT	1.05 ± 0.045
TCTCGTCTCT	1.04 ± 0.028
TCTCGTTGGG	1.012 ± 0.005
TCTCGTTTTT	1 ± 0.043
TCTCTAAAGA	1.04 ± 0.016
TCTCTATCCG	0.997 ± 0.046
TCTCTGAATC	1.24 ± 0.079
TCTCTGGAGA	1.04 ± 0.011
TCTCTGGCAT	1.79 ± 0.19
TCTCTGTTTT	1.05 ± 0.022
TCTGAAAGTG	0.989 ± 0.059
TCTGAACGGT	0.983 ± 0.023
TCTGAGAGGA	0.972 ± 0.032
TCTGAGCCGA	1.39 ± 0.52

Sequence	switch fluorescence ratio
TCTGAGCGGC	0.9349 ± 0.0037
TCTGAGTTTT	1.05 ± 0.06
TCTGATGGGG	1 ± 0.044
TCTGCCTTGG	0.984 ± 0.011
TCTGCTACAA	1.02 ± 0.038
TCTGCTTCCG	1.03 ± 0.02
TCTGGAAAGG	0.9844 ± 0.00033
TCTGGAAGGG	1.02 ± 0.019
TCTGGACTCG	1 ± 0.025
TCTGGGAAAA	0.918 ± 0.037
TCTGGGAAGG	1.01 ± 0.042
TCTGGGAATG	0.983 ± 0.01
TCTGGGGGGC	0.996 ± 0.075
TCTGGGGGGG	0.99 ± 0.052
TCTGGGGGTA	0.982 ± 0.022
TCTGGGTAAT	0.996 ± 0.0013
TCTGGGTAGC	1 ± 0.061
TCTGGGTGAT	1.03 ± 0.015
TCTGGTAGGG	0.99 ± 0.01
TCTGGTGGTT	0.981 ± 0.01
TCTGGTTTGT	1.04 ± 0.049
TCTGGTTTTT	1.01 ± 0.015
TCTGTCCCGC	1.16 ± 0.11
TCTGTGTTT	0.9348 ± 0.0089
TCTGTTTTTG	1.01 ± 0.063

Sequence	switch fluorescence ratio
TCTTAAAGGG	0.9808 ± 0.0011
TCTTACTGGG	0.997 ± 0.018
TCTTAGGGGT	0.981 ± 0.021
TCTTAGGTCA	0.973 ± 0.022
TCTTAGTAC	1.05 ± 0.013
TCTTAGTGGG	1.01 ± 0.017
TCTTAGTTAG	0.9878 ± 0.0059
TCTTAGTTTG	0.986 ± 0.015
TCTTATAGGT	0.986 ± 0.017
TCTTATCGTT	0.964 ± 0.019
TCTTATGCGG	0.998 ± 0.019
TCTTATGGGG	0.994 ± 0.019
TCTTCCGGTT	1.233 ± 0.0018
TCTTGCAAGG	1.11 ± 0.17
TCTTGCGTGG	0.954 ± 0.01
TCTTGCTCGG	1.01 ± 0.053
TCTTGCTCGT	1.02 ± 0.0014
TCTTGGGCCG	1.03 ± 0.061
TCTTGGGCTG	0.9719 ± 0.0073
TCTTGGGGGC	1.01 ± 0.052
TCTTGGGGT	1.06 ± 0.15
TCTTGGTAAT	0.996 ± 0.018
TCTTGTGCAT	1.05 ± 0.03
TCTTGTTAT	1.01 ± 0.051
TCTTGTTTTG	0.994 ± 0.048

Sequence	switch fluorescence ratio
TCTTTAATTT	0.985 ± 0.026
TCTTTCAGTT	0.9816 ± 0.0082
TCTTTGAGGT	0.989 ± 0.022
TCTTTGATCT	1.02 ± 0.054
TCTTTGATTA	1.01 ± 0.042
TCTTTGCGCG	1.02 ± 0.019
TCTTTGGACT	1.002 ± 0.0032
TCTTTGGGGG	1 ± 0.053
TCTTTGGTCG	1.02 ± 0.12
TCTTTGTTGA	0.995 ± 0.032
TCTTTGTTGT	1.01 ± 0.019
TCTTTTGCAT	1.06 ± 0.019
TCTTTTGTG	1.13 ± 0.2
TCTTTTTAGT	1 ± 0.029
TGAAAAAAGG	0.966 ± 0.03
TGAAAAATGT	0.984 ± 0.016
TGAAAAGCGC	1.01 ± 0.024
TGAAAAGGGG	0.998 ± 0.052
TGAAAAGGTT	0.983 ± 0.023
TGAAACCCTA	1.03 ± 0.016
TGAAAGATCG	1.02 ± 0.04
TGAAAGGAAT	1.13 ± 0.19
TGAAAGGCTC	1.1 ± 0.14
TGAAAGGCTT	1.06 ± 0.074
TGAAAGGGAA	0.9898 ± 0.0074

Sequence	switch fluorescence ratio
TGAAAGTCTC	1.003 ± 0.0057
TGAAAGTTGT	1.02 ± 0.029
TGAAAGTTTG	1.01 ± 0.026
TGAAATAAG	0.979 ± 0.026
TGAAATATTG	0.996 ± 0.022
TGAAATCAGT	1.01 ± 0.018
TGAAATGGGG	0.98 ± 0.049
TGAAATTGTG	1.01 ± 0.022
TGAAATTTAT	1.01 ± 0.032
TGAACAAGGG	0.962 ± 0.015
TGAACCAGGG	1.05 ± 0.018
TGAACCTTCA	2.71 ± 0.14
TGAACGTTGG	0.997 ± 0.029
TGAAGAAGTG	0.994 ± 0.022
TGAAGCTTGG	1.026 ± 0.0073
TGAAGCTTGT	1.004 ± 0.003
TGAAGGAGGT	1 ± 0.015
TGAAGGGGAC	0.998 ± 0.015
TGAAGGGGTA	1.01 ± 0.059
TGAAGGGGTG	0.989 ± 0.026
TGAAGGGTAT	1.02 ± 0.033
TGAAGGTAAA	1.02 ± 0.042
TGAAGTAAGG	1.03 ± 0.029
TGAAGTATAG	0.9901 ± 0.005
TGAAGTCGAC	1 ± 0.068

Sequence	switch fluorescence ratio
TGAAGTCGCT	1.02 ± 0.0048
TGAAGTCTGC	0.968 ± 0.036
TGAAGTGTTT	1.01 ± 0.028
TGAAGTTAGC	0.977 ± 0.011
TGAAGTTAGG	1.01 ± 0.021
TGAAGTTCGG	1.06 ± 0.025
TGAAGTTGTA	0.965 ± 0.035
TGAATAGAGG	1.012 ± 0.0024
TGAATAGGGT	1.03 ± 0.073
TGAATATATT	1.01 ± 0.022
TGAATATCTT	1.01 ± 0.026
TGAATATGCG	0.988 ± 0.0096
TGAATATTTT	0.9787 ± 0.0076
TGAATCCATT	1 ± 0.036
TGAATCCGGG	1 ± 0.038
TGAATCGTTT	0.937 ± 0.043
TGAATGGGTA	0.983 ± 0.019
TGAATGTATT	1.03 ± 0.045
TGAATTCCAT	0.983 ± 0.023
TGAATTGGGA	1.02 ± 0.07
TGAATTTCGA	0.953 ± 0.025
TGACACAGTA	1.26 ± 0.21
TGACACATAC	2.24 ± 0.033
TGACAGACAT	1.1 ± 0.027
TGACAGGCGG	0.963 ± 0.011
